Source: the DeepSol protein solubility set

Test: soluble on expression in E. coli; label from the status in PepcDB or PDB records

Sequence	soluble on expression in E. coli
MIKIKENRMSQSNVIIVHGAYGHPFENWFNWMKTELESLGIECFVPQLPTPDGQELKNWLHVFNSTVSPMITHDTILIGHSLGSAFLLRWLEQANQSVFSTILAGSFIGTVGIQKFDKINESFFENGFDWHSIINKSKQFFCYHGSNDPYISRSNFNFIANNLQARKIIISQGGHLNEAAGFSSFPQLLIQLKSLLGINYGKFI	not soluble
MIKNILILSSNNTGHGHKSITESLLEQFSHYPDVNVHVIDGFTLAGNFGLRIGKLYGSVTRNAKELWKLVWELSLKKPSLLNDFTEVAIKDNFLKLICNIKPDLILSVHPNFNGSVLNILEDYNIKVPFVTLLADIVSITPLWADPRADYIICPSKESKFKCLEFGVSESKLIETGFPVRQKFLKLEHHHHHH	not soluble
MIKPEYVVKLLSENMKKTRNPLGIKNEKTNNWWKKVEISKEGDWLFFTGMLYQLTPYIEATVKFLEKIENSRLQGLLTLSKAFPVPFSLLKAITPREAREEAETILQKVYFLLAKSVDVFYAPHLDFYSGILLYDFGHDEAFAEHAKFVCKRLESAGIEKIVTPDPHTTYALKVLYPKFTGVEFDVKSYIELLSDAKSLFNEEFVIHDPCYYGRYLELSDRVREVLNCAGVKYRGVRYSGRLTNCCGGPVEALSPKISREIARLRVEELGNSRIITFCPICLANLRRAGGNAVDFSMVVG	not soluble
MIKRPHVMQDSIQDCGVACIEMICKFYNINIDRRYIQEETGYGMIGISLKAMEKFFSKVDANPEIVNISKINRLNKENREMINNSLPAIVFLEEEEIINHFVVIWHIGKKRILVSDPTHTKKEWINNKHFEKRAISYLFVEKPKNI	not soluble
MILCSEKEKCEGIKNSKDEGIIPRVLILSTLQGEPSREKAKIGIFGINPGPHLPFERLYYTDILKKHGLFTSEYSKSNAIKAFKEIHDTWVSEFIKNYRNYPFHYKYFANTLEFLKKAKTVLIYRRKYNSVWRISILLEHHHHHH	not soluble
MILDTSVIIRIFRDRNFFEVLKERIDDDVKITSVTAYELQRGAVYIMLKHGRDYEFKLIRDFLEEVEILSFTPKDSEISAMIWAKLREKGYELNDADIMISAVSIRENEKLVTLDRDFEYISRVSELDVDILEEEL	not soluble
MILDVDYITEEGKPVIRLFKKENGKFKIEHDRTFRPYIYALLRDDSKIEEVKKITGERHGKIVRIVDVEKVEKKFLGKPITVWKLYLEHPQDVPTLREKVREHPAVVDIFEYDIPFAKRYLIDKGLIPMEGEEELKILAFDIETLYHEGEEFGKGPIIMISYADENEARVITWKNIDLPYVESVSTEKEMIKRFLRIIREKDPDIIVTYNGDSFDFPYLAKRAEKLGIKLTIGRDGSEPKMQRIGDMTAVEVKGRIHFDLYHVIRTTINLPTYTLEAVYEAIFGKPKEKVYADEIAKAWESGENLERVAKYSMEDAKATYELGKEFLPMEIQLSRLVGQPLWDVSRSSTGNLVEWFLLRKAYERNEVAPNKPSEEEYQRRLRESYTGGFVKEPEKGLWENIVYLDYKSLYPSIIITHNVSPDTLNLEGCKNYDIAPQVGHKFCKDIPGFIPSLLGHLLEERQKIKTKMKETQDPIEKILLDYRQKAIKLLANSFYGYYGYAKARWYCKECAESVTAWGRKYIELVWKELEEKFGFKVLYIDTDGLYATIPGGESEEIKKKALEFVKYINSKLPGLLELEYEGFYKRGFFVTKKRYAVIDEEGKVITRGLEIVRRDWSEIAKETQARVLETILKHGDVEEAVRIVKEVIQKLANYEIPPEKLAIYEQITRPLHEYKAIGPHVAVAKKLAAKGVKIKPGMVIGYIVLRGDGPISNRAILAEEYDPKKHKYDAEYYIENQVLPAVLRILEGFGYRKEDLRYQKTRQVGLTSWLNIKKS	soluble
MILGEIMEVLAFKNQSLIDHVNDMVKYWERIKYRYLKTIKRALEALNIKLDIEKVDEFMKILIKLHDIGKASKIYQRAIINDQEKLMGFRHELVSAYYTYHILLKKFGDKNLAFIGALTVMLHHEPIIMGQIRNLKKKELTAEVVLDKLKKFDGMIEDFEDLIKKLIGYSIGDIIKNDSNKDDIIRFVIEMSVRARHTPNSEKLRFIVGTLLLPLVMCDYKGAESREGKAPKFAEVLEVESYVI	soluble
MILLLLLFILGSVSPDELISTRCQAQCLHLMDQRLQNNMELRKTLKHHIIQLCKEDATCSACSAPCREQFDDIKACKKSCVASDDRETCEDSCHYLQRIYQEKPGACPSVSNQSNYECSALCQMDGECPETQKCCSSGCSRQCLKPRSSDIKLLPIPRNISVQERKRKRSIIIRWATGRLSKAQQNENANLFLVQWRWGLHADESAMTEWQTVTVRNKPYAILKHLLSPGRFYEFRTAAVSQEGSLGFSSPSKPFKISKEAKAPPPPKDLSLGASKVVASGLWNQMVHWNPPPSDLPIKNYQISWASSTKSEADAFEEQMRKKSTLEFAAHEKRSLQSDDDEEFIGIQERDRQSVVVPSHATSSEITGLFPNSVYLVEIHASVDSSDGELHGEKGVVFIRTADSLSAVPEDREPYTGPKARIAHGSEELKIEASLKDLKTSSHAPNRPNSPQPAHLEIQTPFFDTELQTQLNWLNAAHCTPAKRQFSVKVRKTLCREYQPNHHSDTRWHDLRVTDCSALLKGLSFDCDYKVEVTDTLTGDFVVDGVFSTDTCDQTSSLTPIDCSSVTTPIQCQVTSESSAHCHWTRHHDAMQTVIGYRILLSSPINHDTNTTINQPQLREVRYENLAPGYVYTVEVQSITNKGLGRTVSTQFVTHPDLDSNAIQRFPGGEIIELPLESSGKLSIFSIFSSFFLVLLLRLL	not soluble
MILVTGATGVVGRQVAHTLARSGRVRLLVRDPARLTVEGPGVEVATGAYEDHASLLRALKGVEAAFLVTVDPGGQEDGRFLRAAVAADVRHVVKLSSYAAGEDDADDLITRWQRKCEETLRSSGLDWTLLRPRAFMSNTLSWADSIRREGTVRALYPGSENACVDPRDIAEVAVTALTSPGHEGRVYPLTGPEAVSAEQQTRHLAAVLGRPLVCRELTPQQAAARWARRYPPKVVHALVLSAQRQLLGRKTTTDPTFARVTGHPPRSYRQWATDHRNAFA	not soluble
MIMALSSFGKILTVLDLFSVHRPIINVDIICEELALSKPTGYRYLKELVSSEILQRISGTSGDYTLGPKIAVMDYISRTTDPIVQMSSPFMRDIAERTELCCLLTHLNRDYCIDVHHEVFRNADLLSYGRGCPRPVYMGSSPKVIMAHLPKRQIQDYYQRFSRQLAEVDFAHDEESFLIRMKKIKKDGYYISHGELNPDVTGLSVPIKFSHTKESPMALTLVASKNRFEFINIDKLIEILQANVIHIEQKSLALIQIEKSLH	not soluble
MIMASSAAASISMITLRNLSRNHQSHQSTFLGFSRSFHNQRISSNSPGLSTRARSTTSSTGGFFRTICSSSSNDYSRPTKIQELNVYEFNEGDRNSPAVLKLGKKPDQLCLGDLVPFTNKLYTGDLTKRIGITAGLCVLIQHVPEKKGDRFEASYSFYFGDYGHISVQGPYLTYEDTFLAITGGSGVFEGAYGQVKLRQLVYPTKLFYTFYLKGVAADLPVELTGKHVEPSKEVKPAAEAQATQPGATIANFTN	soluble
MIMNQQLNATKKDKLQVIDWLIENFPNAFFKKGNQVKPLKIGIFDDLIDFYERLDTPPFSKKSLREALSYYSASPAYLSCQKPDTARVDIYGNEVDVVTPEQAKYAYQRYQERYGNKKSQELK	not soluble
MINFDNFKKYQESFGYMAQQLCFPEKLTFHPKTFEETISKDHPAYEDLVAFRNVMMTFSLSEIKAIYTDTFDFTKKAPLYMTYNKFDTQKERGQMLAKLKVLYEMFGLEMVDNELSDYLPLMLQFLQVAEWRNDPRAEENIQLIIMIIEDGTYVMANALGEDNNPYAYVIQALRKTLKLCLTSPKGVKHHA	not soluble
MINKIFALPVIEQLTPVLSRRQLDDLDLIVVDHPQVKASFALQGAHLLSWKPVGEEEVLWLSNNTPFKTGVALRGGVPICWPWFGPAAQQGLPSHGFARNLPWALKAHNEDDNGVMLTFELQSSEATRKYWPHDFTLLARFKVGKTCEIELEAHGEFATTSALHSYFNVGDIANVKVSGLGDRFIDKVNDAKEGVLTDGIQTFPDRTDRVYLNPEACSVIHDATLNRTIDVVHHHHLNVVGWNPGPALSVSMGDMPDDGYKTFVCVETVYATAPQQATEEKPSRLAQTICVAKR	not soluble
MINSVITQMAEELRKASKVALFSHVSPDGDCIGSMLGIGLALEALGKEVAMFNPDPIPRNLSFLPGVDKITQSMPDPLPETLLFVDCADLQRVQLQREDLPADAVILNLDHHISNQNFGRINWVDSQAAASGELAYALVRRLNVELTQEIAANFYTALLTDTGSFKYANTTAKTHQIAGELMETGISLGDIHHFVFDQTPMVKLELLRRGLNQLQFFAEGQLGMMTLRKQDFEESGAEESLSEGLIDHARTVEGVEVAVLLKEVKPDVVRVSLRSNRWFDVNRIADGFGGGGHQRAAGCTLHLSLEEAKQKVRQIIEEELKLGRSHLEHHHHHH	soluble
MIPKVIHYFWFGRGKKNDVIERCMDSWKVHLPDYEIKEWNEDNFNVHINNFTLQAYQMKKWAFVSDYARLHILYHYGGIYLDTDLEITNSLDPFLDYEGFMGFFSNFDISGGIIGAAKGNKFIKKLLTYYENKNFIDGNGKIDEKTNVEIITEISKKHFGFVGENQTQQILDMTIFPKEYFTVRDVNVKNYAIHHYNASWLSHEEMNKHLKSYRKYYEFTVKWLDNLINNKIDLTPYKNKCIAIFGKGYIGELLVSYLQNNNVPIRQIIDTKFANDTYKDIPIVSSDTISDEVNLIIITPIHSFESIYLSLKEKSCADIISIENLLS	soluble
MIPPLNRYVPALSKNELVKTVTNRDIQFTSFNGKDYPLCFLDEKTPLLFQWFERNPARFGKNDIPIINTEKNPYLNNIIKAATIEKERLIGIFVDGDFFPGQKDAFSKLEYDYENIKVIYRNDIDFSMYDKKLSEIYMENISKQESMPEEKRDCHLLQLLKKELSDIQEGNDSLIKSYLLDKGHGWFDFYRNMAMLKAGQLFLEADKVGCYDLSTNSGCIYLDADMIITEKLGGIYIPDGIAVHVERIDGRASMENGIIAVDRNNHPALLAGLEIMHTKFDADPYSDGVCNGIRKHFNYSLNEDYNSFCDFIEFKHDNIIMNTSQFTQSSWARHVQ	not soluble
MIPVTRMAVGKGTVSTRIKGLRGRRPSSFADILRPVVFWNITRACNLKCIHCYISAGPHPLPGELSTEEALGVARQLVEHGVPLVTLSGGEPLVRRDFWAIAKALSGHDTPKLALSSNGTLITRETAARLRRLGFSYVGISLDSVDPGVHDKFRGAPGAFKAAIRGARNALEEGLDVGFRLTITKYNLDDAPRIIRLASDMGVPRVAIYVVDLLGRATPDLAPSPEDLRRAIDAILEESVRHQDRVEVLLVRANFAGVYLADRLAKTRDEFLQLLSLVGSHGDCGRKSVSIYPDGTVRPCQFLEEVVIGDLRRQRLGEILSADNPLLKPFIAVDTMLRGPKCGGCPFKRVCGGGSRMRALKTTGEFWGDDPLCFIDPWSIARRWGYSAG	not soluble
MIQDKEVTLEYVSSLDFWYCKRCKANIGGHRSSCSFCKNPREVTEAKQELITYPQPQKTSIPAPLEKQPNQPLRPADKEPEPRKREEGQESRLGHQKREAERYLPPSRREGPTFRRDRERESWSGETRQDGESKTIMLKRIYRSTPPEVIVEVLEPYVRLTTANVRIIKNRTGPMGHTYGFIDLDSHAEALRVVKILQNLDPPFSIDGKMVAVNLATGKRRNDSGDHSDHMHYYQGKKYFRDRRGGGRNSDWSSDTNRQGQQSSSDCYIYDSATGYYYDPLAGTYYDPNTQQEVYVPQDPGLPEEEEIKEKKPTSQGKSSSKKEMSKRDGKEKKDRGVTRFQENASEGKAPAEDVFKKPLPPTVKKEESPPPPKVVNPLIGLLGEYGGDSDYEEEEEEEQTPPPQPRTAQPQKREEQTKKENEEDKLTDWNKLACLLCRRQFPNKEVLIKHQQLSDLHKQNLEIHRKIKQSEQELAYLERREREGKFKGRGNDRREKLQSFDSPERKRIKYSRETDSDRKLVDKEDIDTSSKGGCVQQATGWRKGTGLGYGHPGLASSEEAEGRMRGPSVGASGRTSKRQSNETYRDAVRRVMFARYKELD	not soluble
